Reference: publication PMC12089419, “Synergistic regulation of DACH1 stability by acetylation and deubiquitination promotes colorectal cancer progression” (Cell Death & Disease, 2025)

Biological target: T1, GST-USP7 (UniProt Q93009 1-1102)
T1 construct: USP7, cloned in pGEX-4T-1; also called GST-tagged USP7; source: plasmid in pGEX-4T-1
Experiment: pull-down; purified DACH1 incubated with GST or GST-USP7 conjugated with GSH-Sepharose, followed by Coomassie blue staining
Details: both partners purified

T1 sequence (Q93009 whole entry): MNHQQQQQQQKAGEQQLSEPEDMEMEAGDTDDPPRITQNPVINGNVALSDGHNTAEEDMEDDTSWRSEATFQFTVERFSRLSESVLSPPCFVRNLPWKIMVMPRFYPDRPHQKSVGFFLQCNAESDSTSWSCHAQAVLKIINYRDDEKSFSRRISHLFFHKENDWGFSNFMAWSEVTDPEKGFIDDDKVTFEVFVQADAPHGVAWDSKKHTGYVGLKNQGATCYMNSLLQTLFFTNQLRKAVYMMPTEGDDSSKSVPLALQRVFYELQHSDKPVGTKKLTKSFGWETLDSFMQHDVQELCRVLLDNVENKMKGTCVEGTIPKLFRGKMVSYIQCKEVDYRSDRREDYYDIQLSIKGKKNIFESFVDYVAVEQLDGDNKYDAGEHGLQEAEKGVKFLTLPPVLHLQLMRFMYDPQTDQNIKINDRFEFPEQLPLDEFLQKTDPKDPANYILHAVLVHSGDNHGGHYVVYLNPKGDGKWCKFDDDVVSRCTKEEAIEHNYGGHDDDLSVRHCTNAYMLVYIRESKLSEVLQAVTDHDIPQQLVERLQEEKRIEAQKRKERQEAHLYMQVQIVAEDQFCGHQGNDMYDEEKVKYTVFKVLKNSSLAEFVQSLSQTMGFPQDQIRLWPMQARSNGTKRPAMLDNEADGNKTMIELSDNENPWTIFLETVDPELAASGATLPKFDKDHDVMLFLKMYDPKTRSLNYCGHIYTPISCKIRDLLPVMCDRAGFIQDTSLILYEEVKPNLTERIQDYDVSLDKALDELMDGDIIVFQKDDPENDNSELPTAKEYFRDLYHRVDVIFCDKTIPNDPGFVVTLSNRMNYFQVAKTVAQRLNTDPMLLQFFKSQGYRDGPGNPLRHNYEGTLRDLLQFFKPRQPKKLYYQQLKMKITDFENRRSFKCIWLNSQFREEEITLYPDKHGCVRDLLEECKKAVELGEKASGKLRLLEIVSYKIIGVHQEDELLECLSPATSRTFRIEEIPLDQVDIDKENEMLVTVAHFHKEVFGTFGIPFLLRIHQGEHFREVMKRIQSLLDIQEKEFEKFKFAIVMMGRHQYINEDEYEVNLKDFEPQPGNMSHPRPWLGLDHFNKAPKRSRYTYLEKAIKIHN

B1: Myc-DACH1-FL (natural protein, human, UniProt Q9UI36 1-758, looked up)
chain: MAVPAALIPPTQLVPPQPPISTSASSSGTTTSTSSATSSPAPSIGPPASSGPTLFRPEPIASAAAAAATVTSTGGGGGGGGSGGGGGSSGNGGGGGGGGGGSNCNPNLAAASNGSGGGGGGISAGGGVASSTPINASTGSSSSSSSSSSSSSSSSSSSSSSSSCGPLPGKPVYSTPSPVENTPQNNECKMVDLRGAKVASFTVEGCELICLPQAFDLFLKHLVGGLHTVYTKLKRLEITPVVCNVEQVRILRGLGAIQPGVNRCKLISRKDFETLYNDCTNASSRPGRPPKRTQSVTSPENSHIMPHSVPGLMSPGIIPPTGLTAAAAAAAAATNAAIAEAMKVKKIKLEAMSNYHASNNQHGADSENGDMNSSVGSSDGSWDKETLPSSPSQGPQASITHPRMPGARSLPLSHPLNHLQQSHLLPNGLELPFMMMPHPLIPVSLPPASVTMAMSQMNHLSTIANMAAAAQVQSPPSRVETSVIKERVPDSPSPAPSLEEGRRPGSHPSSHRSSSVSSSPARTESSSDRIPVHQNGLSMNQMLMGLSPNVLPGPKEGDLAGHDMGHESKRMHIEKDETPLSTPTARDSLDKLSLTGHGQPLPPGFPSPFLFPDGLSSIETLLTNIQGLLKVAIDNARAQEKQVQLEKTELKMDFLRERELRETLEKQLAMEQKNRAIVQKRLKKEKKAKRKLQEALEFETKRREQAEQTLKQAASTDSLRVLNDSLTPEIEADRSGGRTDAERTIQDGRLYLKTTVMY
notes: DACH1, human, full length (FL), cloned in pcDNA3.1 or a lentiviral plasmid; the text calls it Myc-tagged DACH1; also called Myc-tagged DACH1; Myc-tagged FL DACH1; source: HEK293T or SW480, transfected, in lysate; HCT8, stably expressed, whole cell extracts
**Q.** Does B1 bind?
**A.** binds
